# In patent US20040018487A1:
# Biological target: HPV 16 E6 C-terminal PL peptide (TQL), biotinylated (HPV 16)
# Assay: G assay, HPV16 E6 PL peptide titrated against a constant amount of GST-PDZ
# Chain of GST-DLG3 PDZ domains 1-2 (Q92796 other isoform, or with tags, fused parts or gaps limits assumed): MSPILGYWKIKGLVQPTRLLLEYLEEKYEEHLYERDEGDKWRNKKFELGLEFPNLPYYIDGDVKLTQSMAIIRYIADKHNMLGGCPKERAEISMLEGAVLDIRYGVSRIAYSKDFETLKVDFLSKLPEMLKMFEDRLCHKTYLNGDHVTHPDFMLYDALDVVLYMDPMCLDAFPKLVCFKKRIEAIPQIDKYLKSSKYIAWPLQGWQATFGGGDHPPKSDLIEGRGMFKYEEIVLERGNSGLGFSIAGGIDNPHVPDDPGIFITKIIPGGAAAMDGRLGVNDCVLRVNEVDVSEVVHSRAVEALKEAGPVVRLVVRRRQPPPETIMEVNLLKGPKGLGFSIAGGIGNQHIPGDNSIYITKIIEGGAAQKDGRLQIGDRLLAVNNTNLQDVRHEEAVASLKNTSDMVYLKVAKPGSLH
# Chain of GST-Magi3 PDZ domain 1 (Q5TCQ9 other isoform, or with tags, fused parts or gaps limits assumed): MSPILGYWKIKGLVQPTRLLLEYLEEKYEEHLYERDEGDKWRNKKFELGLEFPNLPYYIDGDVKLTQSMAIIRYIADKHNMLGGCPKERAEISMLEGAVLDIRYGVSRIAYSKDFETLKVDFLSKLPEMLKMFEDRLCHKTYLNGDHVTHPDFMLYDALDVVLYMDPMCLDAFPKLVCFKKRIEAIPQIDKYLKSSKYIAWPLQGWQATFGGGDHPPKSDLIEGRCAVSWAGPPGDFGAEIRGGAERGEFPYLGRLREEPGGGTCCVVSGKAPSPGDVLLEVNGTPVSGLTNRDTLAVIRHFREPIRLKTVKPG
# Chain of GST-SAST1 KIAA PDZ domain (Q9Y2H9 other isoform, or with tags, fused parts or gaps): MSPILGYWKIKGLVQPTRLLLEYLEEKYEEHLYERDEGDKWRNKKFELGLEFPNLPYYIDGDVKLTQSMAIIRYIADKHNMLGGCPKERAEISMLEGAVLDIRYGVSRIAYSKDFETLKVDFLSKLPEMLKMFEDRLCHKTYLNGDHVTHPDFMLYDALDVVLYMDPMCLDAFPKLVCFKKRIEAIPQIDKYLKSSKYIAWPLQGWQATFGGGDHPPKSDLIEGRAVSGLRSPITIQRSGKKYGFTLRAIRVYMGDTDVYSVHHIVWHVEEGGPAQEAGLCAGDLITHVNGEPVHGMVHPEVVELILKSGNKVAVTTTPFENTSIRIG
row,Substance,EC50
1,GST-DLG2 PDZ domain 3,1600 nM
2,GST-DLG3 PDZ domains 1-2 (from UniProt Q92796 125-316),3800 nM
3,GST-MAGI1 PDZ domain 2,56 nM
4,GST-Magi3 PDZ domain 1 (from UniProt Q5TCQ9 18-106),310 nM
5,GST-SAST1 KIAA PDZ domain (from UniProt Q9Y2H9 960-1062),580 nM
6,GST-SAST2 PDZ domain,1200 nM
7,GST-SIP1 PDZ domain 1,7500 nM
8,GST-VARTUL (PDZ domain not stated) (from UniProt Q14160 720-955),940 nM
